Measurements from the nanobody polyreactivity screen of Harvey et al. (2022).

Test: yeast display, Sf9 membrane polyspecificity reagent, FACS + sequencing; frameworks hold sequencing errors
In short: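 Nanobodies from a synthetic yeast display library (Saccharomyces cerevisiae BJ5465), induced 36–48 hours with galactose, were stained 1 hour at 4 °C with 10% biotinylated, detergent-solubilized Sf9 membrane reagent, enriched on streptavidin microbeads, then FACS-sorted. Anti-HA (expression) and streptavidin (reagent binding) fluorescence set low and high (top ~1%) gates. Polyreactivity labels come from the gate of origin. Genes were colony-PCR amplified, MiSeq 2 × 250 sequenced and filtered by CDR length.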

Sequence	polyreactivity (PSR sort gate)
QVQLVESGGVLVQAGGSLRLSCAASGSIFYVNAMGWYRQAPGKERELVATITTDGSTNYADSVKGRFTISRDNAKNTVYLPMNSLKPEDTAVYYCAAERWLATPTVPWYLYNYWGQGTQVTVSS	low polyreactivity
QVQLVESGGVLVQAGGSLRLSCAASGSLFSRYAMGWYRQAPGKERELVAAISSSGGSTYYADSVKGRFTISRDNAKNTVYLQMISLKREDTAVYDCGAELRYYLVWLYYWGQGTQVSVSS	low polyreactivity
QVQLVESGGVLVQAGGSLRLSCAASGSTFFLYMGWYRQAPGKERELVAAITVSGRSTYYADSVKGRFTISRDNAKNTVYLQMNSLKPEDTAVYYCNADWVLRYDYWGQGTQVTVSS	low polyreactivity
QVQLVESGGVLVQAGGSLRLSCAASGSTFPWYAMGWYRPAPGKERELVAAITARGTRTYYADSVKGRFTISRDNAKNTVYLQMNILKPEDTAVYYCNAGISSRYDYWGQGTQVTVSS	high polyreactivity
QVQLVESGGVLVQAGGSLRLSCAASGSTFWTNTMGWYRQAPGKERELVAAISRRGGTTYYADSVKGRFTISRDNAKNTVYLQMNSLKPEDTAVYYCATSLIGKTVPLRVYYWGQGTQVTVSS	high polyreactivity
QVQLVESGGVLVQAGGSLRLSCAASGSTIRLYAMGWYRQAPGKERELVAAIRSGGNTNYADSVKGRFTISRDNAKNSVYLQMKSLKREDTAVYYCNGFCAQLPVPNYDYWGQGPQVTVSS	high polyreactivity
QVQLVESGGVLVQAGGSLRLSCAATGSIINRYAMGWYRQAPRKERELVAAISSTGSTYYADSVKGRFTISRDNAKNTVYLQLNSLKPEDTAVYYCNADATLDWLRVDSYVYWGQGTQVTVSS	low polyreactivity
QVQLVESGGVLVQAGGSLRLSCADSGRTFWYYAMGWYRQAPGKEREWVASISASGGSTFYADSVKGRFTISRDNAKNTVSLQMNSLKPEDTAVYYRAAKNAVWRRYEYWGQGTQVTVSS	high polyreactivity
QVQLVESGGVLVQAGGSLRLSCASSLTISYRYAMGWYRTAPGKERELVAAITSGGGTTYYADSVKGRFTISRDNAKNTVYLQMNSMKPEDTAVYYCAKPRARQAFEYWGQGTQVTVSS	high polyreactivity
QVQLVESGGVLVQALGSLRLSCAASVITIDNYVMGWYRQAPGKERELVAAISIGGGTYYADSVKGRFTISRDNAKNTVYLQMNSRKPEDSAVYYCKARSDVSYWWGGYWGQGTQVTVSS	low polyreactivity
QVQLVESGGVLVQARGILRLICAASGSTFSFNDMGWYRQAPGKERELVAAISRGDNTYYADSVKGRFTISRDNAKNTVYLQMNSLKPDDTSVYYCAADYTYGPPYGYNYWGQGTQVTVSS	low polyreactivity
QVQLVESGGVLVQAVGSLRLSCAASGSIFRLYALGWYREARGKEREFVATITWSGGSTSYADSVKGRFTISRDNAKNTVYLQMNSLKPEDTAVYYCAAKRRYWLYDWGQGTQVTVSS	high polyreactivity
QVQLVESGGVLVQGRGSLRLSCDASGFTYYTNDMGWYRQAPWKERELVAAINSGGSTKYADSVKGRFPISRDNAKNTVYEQMNSLKPEETAVYYCNRDDNRKHSFGSVGYDYWGQGHQVTVSS	low polyreactivity
QVQLVESGGWLVQAGGSLRLSCAASGFIFYRYAMGWYRPAPGKERELDAAISGSGGRTYYADSVKGRFTISRDNAKNTVYLQMNSLKPEDTAVYYCAADKQAYVTDDYWGQGTQVTVSS	high polyreactivity
QVQLVESGGWLVQAGGSLRLSCAASGSIFTINTMGWYRQARGKERELVAAITGSGGITYYADSVKGRFTISRDNAKNTVYLQMNSLNPVDTAVYYCAAVVYGTVRRVGWYYVGEGYDYWGQGTQVTVSS	low polyreactivity
QVQLVESGLGLVKAGGSLRLSCAASGNTFDHYVMVWSRQAPGKEPELVASITSGGSTNYADSVKGRFTISRDNAKNTVYLQMNSLKPEDTAVYYCAVSLSYWYEAFTTRIDYYYWGQGTQVTLSS	high polyreactivity
QVQLVESGLGLVQAGRSLRLSCASSGRIFNYYAMVWYRQAPGKERELVAGINWSGTRTYYADSVKGRFTISRDNAKNTVYLQMNSLKPEDTAVYYCNAGRTWRAFTGDEYWGQGTQVSVSS	high polyreactivity
QVQLVESGRGIVQAGGSLRLSCAASGRIFRVNAMGWYRQAPGKERELVATISYSGGSTYADSVKGRFTISRDNAKNTVYLQMNSLKPEDTAVYYCAARPYYRYYRYPYGYWGQGTQVTVSS	high polyreactivity
QVQLVESGRGLFQAGGSLRLSCAASGRIFRYYAMGWSRQATGKERELVAAISGSGGSTYYAASVKGRFTISGDNAKNTVYLLMNSLKPEDNAVYYCNALYRIASGEGDLWGQGTQVTVSS	low polyreactivity
QVQLVESGRGLFQAGRSLRISCAASGSIFSYNTMGWYREAPGKERELVASISSGGRTYYADSVKGRFTISRDNAKNTVYLQMNSLKPVDTAVYDCARVPYAYLPYKPFQQYSYDYWGQGTQVTVSS	high polyreactivity
QVQLVESGRGLVHAGGSLLLSCAASGSTFGWYAMGRFIQARGKEREFVAAISWSGTSTYYADSVKGRFTISRDNAKNTFDLQMNSLKPEDTAVYYCASRWVVFTEREDYWGQGTQVTVSS	low polyreactivity
QVQLVESGRGLVPAGGSLRLSCAASGSTFFKNAMGWYRQAPGNERELVAAITWSGDRTYADSVKGRFTISRDNAKNTVYLQMNSLKPEDTAVYYCNVDITGYEDDEWGQGTQVTVSS	low polyreactivity

Sequence	polyreactivity (PSR sort gate)
QVQLVESGRGLVQAGCSLRLSCAASGRIFPWNAMGWYRQAPGKETEFVAAITSGGGTTYYADSVKGRFTISRDTAKITVYLQMNSLKQEDTAVYYCAAPVYTVRGWRGLYGYWGQGSQVTVSS	high polyreactivity
QVQLVESGRGLVQAGGSLRISCAASGSIFRVNAMGWYRQAPGKERELVASISKTGTRTYYADSVKGRFTISRDNAKITVYLQMNSLKPEDTAVYYCAADKPRREYDYWGQGTQVTVSS	low polyreactivity
QVQLVESGRGLVQAGGSLRLSCAASARTFPIYAMGCYRQAPWKEREFVAAITYSGGSTYYADSVKGRFTISRDNAKNTVYLQMNSLKPEDTAVYYCAVDGTKPYWHQRYDYSGQGTQVTVSS	low polyreactivity
QVQLVESGRGLVQAGGSLRLSCAASGFIFDYNTMGWYRQAPGKERELVAGITSGGSTYYADSVKGRFTISRDNEKNTFYLQMNSLKPDDTAVYYCATDDDEYYGYDYWGQGTQVTVST	low polyreactivity
QVQLVESGRGLVQAGGSLRLSCAASGFIFHRYAMGWYRQAPGKERELFAAITRTGGRTYYADSVKGRFTISRDNAKNTVYLQMNSLKPEDTEVYYCAAVRTLSYEYWGQGTKVTVSS	high polyreactivity
QVQLVESGRGLVQAGGSLRLSCAASGFTFDGNAMGWYRQAPGIERELFARITWDDGSTYYADSVKGRFTISRDNAKNTVYLQMNSLNPEDTAVYYCAAEWCTDGYQVLPVDYDYWGQGTQVTVSS	low polyreactivity
QVQLVESGRGLVQAGGSLRLSCAASGFTFRTYAMGWYRQSPGKERELDAAITRNGGTYYADSVKGRFTISRDNAKITVYLPMNSLKPEDTARYYCATDPAYWGDLPPEDDYWGQGTQVTVSS	low polyreactivity
QVQLVESGRGLVQAGGSLRLSCAASGGTFYIYAMGWYRQAPGKERELVAVISISDASTYYADSVKGRFTFSRDNAKNTVYLQMNSLKPEDTAVYYCNAKSNPAGSYPSEHSGYDSWGQGTQVTVSS	low polyreactivity
QVQLVESGRGLVQAGGSLRLSCAASGIIFSSYAMGWYRQAPGKERELVAAISYSGGSTYYADSVKGLFSISRDNAKNTVYLEMNCLIPEDTAVYYCAAQGYSPGGYDYWGQGTQVTVSW	low polyreactivity
QVQLVESGRGLVQAGGSLRLSCAASGIIFVKYAMGWYRQAPGKERELVAAISTRGGSTYYADSVKGRFTISRDNAKNTVYLQMNSLNPEDTAVYYCADDATRKSQLPNTVPYDYWGQGTQVTVSS	high polyreactivity
QVQLVESGRGLVQAGGSLRLSCAASGIIFVSYMGWYRQAPGKERELVAAIRWSGGRTYYADSVKGRFTISRDNAKNTVYLQMNSLNPVDTAVYYCAADALRKPKIALYDYWGQGTQVTVSS	high polyreactivity
QVQLVESGRGLVQAGGSLRLSCAASGITFSYYTMGWYRQAPGKERELVAAINWNGGSTYYADSVKGRFTISRDNAKNTVYLQMNSLKPEDTAVYYCAREKWPSQYDYWGQGTQVTVSS	low polyreactivity
QVQLVESGRGLVQAGGSLRLSCAASGRIFHYNAMVWYRQAPRKERELVAAISGSGGSTYYADTVKGRFTISRDIAKNTVYLQMNSLKPEDTADYYCGDKRRTLGGYWGQGTQVTVSS	high polyreactivity
QVQLVESGRGLVQAGGSLRLSCAASGRIFRYYTMGWYRQAPGKERELVATISWNGSNTYYADSVKGRFTISRDNAKNTVYLQMNSLKPEDTAVYYCAAGVLPGLYNGARLFDYWGQGTQVTVSS	low polyreactivity
QVQLVESGRGLVQAGGSLRLSCAASGRIFTKNTMGWYRQAPGKERELVAAIRSRAGSTYYADSVKGRFTISRDNAKNTVYLQMNSLKPEDTAVYYCAVPWFRSVDFDYWGQGTQVTVSS	low polyreactivity
QVQLVESGRGLVQAGGSLRLSCAASGRIFYRYVMGWYRQAPGKERELVAAITSSGGSTYYADSVKGRFTISRDNAKNTVYFQMNSLKPEDTAVYYCSADRYTRYRYNYWGQGTQVTVSS	high polyreactivity
QVQLVESGRGLVQAGGSLRLSCAASGRIFYVYAMGWSRTAPGKERELVAAITQSGGRTYYADSVKGRFTISRDNAKNTVYLQMNSLKPEDTAVYYCAATWLGSRNLVHITLYYWGQGTQVTVSS	low polyreactivity
QVQLVESGRGLVQAGGSLRLSCAASGRIFYYAMGWYRQAPGKERELVAAITRSGGRTYYADSVKGRFTISRDNEKNTVYLQMNSLKPEDTAVYDCAADYGAQLWGYYPTFDYWGQGTQVTVSS	high polyreactivity
QVQLVESGRGLVQAGGSLRLSCAASGRIIGYYTMGWYRQAPGKERELVAAITRDGGSTYYADSVKGRFTISRDNAKNTVYLQMNSLKPEDTAVYYCTAASQSRYFYWGQGTQVTVSS	high polyreactivity
QVQLVESGRGLVQAGGSLRLSCAASGRTFGYYAMGWYIQAPGKERELVAAISYSGGSTYYADSVKGRFKISRDNAKNTVYLQMNSLKPEDTAVYYCAAYLRRYPWYDYWVQGTQVTVSS	high polyreactivity
QVQLVESGRGLVQAGGSLRLSCAASGRTFHYNVMGWYRQAPGKERELVAAITNTGGSTYYADSVKGRFTISRDNAKNTVYLQMNSLKPEDTAVYYCAAVIWGRRYGAYPYEYWGQGTQVTVSS	low polyreactivity
